Data as given in PMC9482650, “Quantitative fragmentomics allow affinity mapping of interactomes” (Nature Communications, 2022).

What was measured:
Experiment in all cases: holdup assay
Set-up in all cases: key: below the threshold = too weak to quantify, mostly under pKd 3.1 to 4
Conditions in all cases: plain residues with an end cap or a label only (N-terminal biotin on a linker: ado-ado)
GRIP2_7, Q9C0E4 = molecular target: GRIP2_7, Q9C0E4
Inadl_1, Q8NI35 = molecular target: Inadl_1, Q8NI35
FRMPD3, Q5JV73 = molecular target: FRMPD3, Q5JV73
SNX27, Q96L92 = molecular target: SNX27, Q96L92
IL16_4, Q14005 = molecular target: IL16_4, Q14005
MAGI2_6, Q86UL8 = molecular target: MAGI2_6, Q86UL8
MAGI1_1, Q96QZ7 = molecular target: MAGI1_1, Q96QZ7
TX1BP3, O14907 = molecular target: T1, TX1BP3, O14907
T1 sequence (O14907 10-122, limits assumed, looked up): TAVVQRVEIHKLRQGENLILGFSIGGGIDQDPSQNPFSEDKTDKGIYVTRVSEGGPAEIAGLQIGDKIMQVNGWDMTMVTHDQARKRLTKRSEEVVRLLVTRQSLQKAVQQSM

LNX1_3, Q8TBB1 = molecular target: LNX1_3, Q8TBB1
SCRIB_3, Q14160 = molecular target: SCRIB_3, Q14160
LNX1_1, Q8TBB1 = molecular target: LNX1_1, Q8TBB1
MAGI1_2, Q96QZ7 = molecular target: MAGI1_2, Q96QZ7
PDZRN4_1, Q6ZMN7 = molecular target: PDZRN4_1, Q6ZMN7
GRIP2_4, Q9C0E4 = molecular target: GRIP2_4, Q9C0E4
GRIP1_3, Q9Y3R0 = molecular target: T2, GRIP1_3, Q9Y3R0
T2 sequence (Q9Y3R0 247-346, limits assumed, looked up): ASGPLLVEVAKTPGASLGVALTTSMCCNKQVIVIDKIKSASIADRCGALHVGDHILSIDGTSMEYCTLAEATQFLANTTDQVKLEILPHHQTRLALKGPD

GRIP1_5, Q9Y3R0 = molecular target: T3, GRIP1_5, Q9Y3R0
T3 sequence (Q9Y3R0 568-668, limits assumed, looked up): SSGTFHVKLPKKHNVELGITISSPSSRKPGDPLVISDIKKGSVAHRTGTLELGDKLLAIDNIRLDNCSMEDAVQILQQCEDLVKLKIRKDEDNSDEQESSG

FRMPD4, Q14CM0 = molecular target: FRMPD4, Q14CM0
RADIL, Q96JH8 = molecular target: T4, RADIL, Q96JH8
T4 sequence (Q96JH8 971-1071, limits assumed, looked up): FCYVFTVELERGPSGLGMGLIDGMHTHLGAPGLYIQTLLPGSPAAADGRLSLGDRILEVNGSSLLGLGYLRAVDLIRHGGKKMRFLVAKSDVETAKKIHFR

SNTB1, Q13884 = molecular target: T5, SNTB1, Q13884
T5 sequence (Q13884 107-205, limits assumed, looked up): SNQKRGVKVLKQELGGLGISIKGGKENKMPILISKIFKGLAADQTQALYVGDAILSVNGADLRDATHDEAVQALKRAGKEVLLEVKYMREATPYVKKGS

DLG4_2, P78352 = molecular target: DLG4_2, P78352
PDZRN3_1, Q9UPQ7 = molecular target: T6, PDZRN3_1, Q9UPQ7
T6 sequence (Q9UPQ7 244-349, limits assumed, looked up): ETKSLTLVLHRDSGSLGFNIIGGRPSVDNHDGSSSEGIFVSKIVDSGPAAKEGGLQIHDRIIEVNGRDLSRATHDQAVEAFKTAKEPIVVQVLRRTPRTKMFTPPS

APBA2_2, Q99767 = molecular target: T7, APBA2_2, Q99767
T7 sequence (Q99767 654-744, limits assumed, looked up): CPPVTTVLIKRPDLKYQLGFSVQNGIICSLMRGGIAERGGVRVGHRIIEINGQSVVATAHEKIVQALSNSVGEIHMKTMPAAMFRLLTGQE

Inadl_6, Q8NI35 = molecular target: Inadl_6, Q8NI35
DLG4_3, P78352 = molecular target: DLG4_3, P78352
PICK1, Q9NRD5 = molecular target: PICK1, Q9NRD5
SCRIB_2, Q14160 = molecular target: SCRIB_2, Q14160
MAGI2_5, Q86UL8 = molecular target: MAGI2_5, Q86UL8
GORASP1, Q9BQQ3 = molecular target: GORASP1, Q9BQQ3
LNX1_2, Q8TBB1 = molecular target: LNX1_2, Q8TBB1
CASK, O14936 = molecular target: CASK, O14936
Chain of CASK, O14936 (O14936 487-570): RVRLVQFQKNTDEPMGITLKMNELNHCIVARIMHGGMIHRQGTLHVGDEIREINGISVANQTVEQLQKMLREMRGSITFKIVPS

Chain of DLG4_2, P78352 (P78352 155-259): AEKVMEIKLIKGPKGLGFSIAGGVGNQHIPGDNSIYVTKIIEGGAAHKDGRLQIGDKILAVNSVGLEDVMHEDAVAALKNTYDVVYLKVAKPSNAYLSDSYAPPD
Chain of PDZRN4_1, Q6ZMN7 (Q6ZMN7 213-318): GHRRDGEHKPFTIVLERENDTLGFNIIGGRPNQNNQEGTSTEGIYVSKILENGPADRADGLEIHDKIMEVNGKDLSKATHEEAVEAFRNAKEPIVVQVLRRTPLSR
Chain of LNX1_3, Q8TBB1 (Q8TBB1 500-596): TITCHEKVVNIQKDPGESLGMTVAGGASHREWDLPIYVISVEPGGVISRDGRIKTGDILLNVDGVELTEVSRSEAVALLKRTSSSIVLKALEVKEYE
Chain of MAGI1_2, Q96QZ7 (Q96QZ7 456-580): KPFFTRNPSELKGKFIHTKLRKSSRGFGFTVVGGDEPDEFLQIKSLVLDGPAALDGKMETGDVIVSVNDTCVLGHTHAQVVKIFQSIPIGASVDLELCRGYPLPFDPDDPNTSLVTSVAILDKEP
Chain of LNX1_1, Q8TBB1 (Q8TBB1 261-371): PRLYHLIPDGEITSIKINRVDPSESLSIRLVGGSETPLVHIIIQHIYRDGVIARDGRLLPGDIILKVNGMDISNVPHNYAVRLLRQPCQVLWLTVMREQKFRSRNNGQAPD
Chain of DLG4_3, P78352 (P78352 306-403): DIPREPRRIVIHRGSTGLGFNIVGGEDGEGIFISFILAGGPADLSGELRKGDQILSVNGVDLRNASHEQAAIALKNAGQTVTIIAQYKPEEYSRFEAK
Chain of PICK1, Q9NRD5 (Q9NRD5 17-115): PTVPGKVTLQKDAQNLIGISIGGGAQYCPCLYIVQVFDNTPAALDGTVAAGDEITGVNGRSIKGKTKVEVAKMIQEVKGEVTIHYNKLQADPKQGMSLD
Chain of MAGI2_6, Q86UL8 (Q86UL8 1141-1229): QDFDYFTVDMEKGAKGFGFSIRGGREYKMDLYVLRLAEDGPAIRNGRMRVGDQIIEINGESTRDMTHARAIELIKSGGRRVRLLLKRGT
Chain of SCRIB_3, Q14160 (Q14160 999-1103): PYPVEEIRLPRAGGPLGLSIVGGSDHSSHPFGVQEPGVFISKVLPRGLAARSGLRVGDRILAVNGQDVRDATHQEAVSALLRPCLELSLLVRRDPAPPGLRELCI
Chain of MAGI1_1, Q96QZ7 (Q96QZ7 1-106): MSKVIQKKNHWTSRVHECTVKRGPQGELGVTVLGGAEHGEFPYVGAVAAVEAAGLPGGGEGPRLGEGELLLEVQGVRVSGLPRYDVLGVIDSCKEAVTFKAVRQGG
Chain of GRIP2_7, Q9C0E4 (Q9C0E4 934-1023): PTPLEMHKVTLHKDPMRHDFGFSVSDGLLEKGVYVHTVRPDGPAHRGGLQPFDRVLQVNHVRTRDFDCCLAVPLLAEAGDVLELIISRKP
Chain of FRMPD3, Q5JV73 (Q5JV73 12-100): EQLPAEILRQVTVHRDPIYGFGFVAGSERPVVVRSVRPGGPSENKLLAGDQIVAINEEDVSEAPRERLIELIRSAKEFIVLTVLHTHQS
Chain of IL16_4, Q14005 (Q14005 1229-1329): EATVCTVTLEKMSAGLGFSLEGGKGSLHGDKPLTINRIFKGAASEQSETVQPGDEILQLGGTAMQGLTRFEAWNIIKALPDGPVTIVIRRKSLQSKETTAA
Chain of GRIP2_4, Q9C0E4 (Q9C0E4 446-548): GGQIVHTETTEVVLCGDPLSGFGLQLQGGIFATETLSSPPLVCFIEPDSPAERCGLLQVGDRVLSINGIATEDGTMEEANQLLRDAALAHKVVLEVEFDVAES
Chain of Inadl_6, Q8NI35 (Q8NI35 1058-1167): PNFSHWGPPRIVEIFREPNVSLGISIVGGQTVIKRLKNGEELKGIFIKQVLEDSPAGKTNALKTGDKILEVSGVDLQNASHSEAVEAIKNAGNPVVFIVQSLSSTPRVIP
Chain of FRMPD4, Q14CM0 (Q14CM0 67-160): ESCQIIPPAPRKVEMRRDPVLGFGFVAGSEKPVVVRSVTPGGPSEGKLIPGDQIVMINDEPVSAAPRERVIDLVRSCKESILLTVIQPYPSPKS
Chain of SCRIB_2, Q14160 (Q14160 857-960): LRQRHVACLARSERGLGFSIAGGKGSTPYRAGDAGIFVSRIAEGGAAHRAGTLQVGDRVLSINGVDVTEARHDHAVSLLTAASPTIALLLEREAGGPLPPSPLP
Chain of LNX1_2, Q8TBB1 (Q8TBB1 371-470): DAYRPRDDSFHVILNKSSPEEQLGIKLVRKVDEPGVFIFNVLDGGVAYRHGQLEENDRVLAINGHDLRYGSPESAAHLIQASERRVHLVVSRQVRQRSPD
Chain of GORASP1, Q9BQQ3 (Q9BQQ3 1-208): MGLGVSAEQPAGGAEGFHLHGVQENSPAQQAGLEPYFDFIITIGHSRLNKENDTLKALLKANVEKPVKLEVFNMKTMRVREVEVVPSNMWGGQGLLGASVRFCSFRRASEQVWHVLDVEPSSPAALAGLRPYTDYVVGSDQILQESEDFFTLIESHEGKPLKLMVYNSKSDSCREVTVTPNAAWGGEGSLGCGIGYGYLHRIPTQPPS
Chain of MAGI2_5, Q86UL8 (Q86UL8 915-1017): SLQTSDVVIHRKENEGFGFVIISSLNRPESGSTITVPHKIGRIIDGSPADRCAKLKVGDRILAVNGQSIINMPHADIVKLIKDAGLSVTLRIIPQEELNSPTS
Chain of Inadl_1, Q8NI35 (Q8NI35 113-229): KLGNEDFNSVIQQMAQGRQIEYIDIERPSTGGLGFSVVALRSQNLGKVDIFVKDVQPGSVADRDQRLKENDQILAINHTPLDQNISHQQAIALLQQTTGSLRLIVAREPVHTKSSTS

Binder | pKd (GRIP2_7, Q9C0E4) | pKd (Inadl_1, Q8NI35) | pKd (FRMPD3, Q5JV73) | pKd (SNX27, Q96L92) | pKd (IL16_4, Q14005) | pKd (MAGI2_6, Q86UL8) | pKd (MAGI1_1, Q96QZ7) | pKd (TX1BP3, O14907) | pKd (LNX1_3, Q8TBB1) | pKd (SCRIB_3, Q14160) | pKd (LNX1_1, Q8TBB1) | pKd (MAGI1_2, Q96QZ7) | pKd (PDZRN4_1, Q6ZMN7) | pKd (GRIP2_4, Q9C0E4) | pKd (GRIP1_3, Q9Y3R0) | pKd (GRIP1_5, Q9Y3R0) | pKd (FRMPD4, Q14CM0) | pKd (RADIL, Q96JH8) | pKd (SNTB1, Q13884) | pKd (DLG4_2, P78352) | other results
EVEEFPETSV [TRPV3, Q8NET8] | 3.58 | below the threshold | 3.59 | 5.83 | below the threshold | 4.71 | 3.63 | 4.8 | below the threshold | 5.02 | 4.19 | 3.63 | 4.98 | 3.55 | 3.49 | below the threshold | 3.74 | 3.81 | 5.23 | 4.4 | pKd (PDZRN3_1, Q9UPQ7): 4.91; pKd (APBA2_2, Q99767): below the threshold; pKd (Inadl_6, Q8NI35): 4.18; pKd (DLG4_3, P78352): 4.2; pKd (PICK1, Q9NRD5): below the threshold; pKd (SCRIB_2, Q14160): 4.94; pKd (MAGI2_5, Q86UL8): 3.82; pKd (GORASP1, Q9BQQ3): 3.54; pKd (LNX1_2, Q8TBB1): 3.59; pKd (CASK, O14936): below the threshold
PAPSSGKDYV [CLDN1, O95832] | 3.63 | below the threshold | below the threshold | 3.62 | below the threshold | below the threshold | 3.55 | below the threshold | below the threshold | below the threshold | below the threshold | below the threshold | below the threshold | below the threshold | below the threshold | below the threshold | 3.59 | 4 | below the threshold | below the threshold | pKd (PDZRN3_1, Q9UPQ7): below the threshold; pKd (APBA2_2, Q99767): below the threshold; pKd (Inadl_6, Q8NI35): below the threshold; pKd (DLG4_3, P78352): below the threshold; pKd (PICK1, Q9NRD5): below the threshold; pKd (SCRIB_2, Q14160): below the threshold; pKd (MAGI2_5, Q86UL8): below the threshold; pKd (GORASP1, Q9BQQ3): below the threshold; pKd (LNX1_2, Q8TBB1): below the threshold; pKd (CASK, O14936): below the threshold
NHSSSPETTA [TRMT13, Q9NUP7] | below the threshold | below the threshold | below the threshold | below the threshold | below the threshold | below the threshold | below the threshold | 3.87 | below the threshold | below the threshold | below the threshold | below the threshold | below the threshold | below the threshold | below the threshold | below the threshold | below the threshold | below the threshold | below the threshold | below the threshold | pKd (PDZRN3_1, Q9UPQ7): below the threshold; pKd (APBA2_2, Q99767): below the threshold; pKd (Inadl_6, Q8NI35): below the threshold; pKd (DLG4_3, P78352): below the threshold; pKd (PICK1, Q9NRD5): below the threshold; pKd (SCRIB_2, Q14160): below the threshold; pKd (MAGI2_5, Q86UL8): below the threshold; pKd (GORASP1, Q9BQQ3): below the threshold; pKd (LNX1_2, Q8TBB1): below the threshold; pKd (CASK, O14936): below the threshold
